Assay results taken from US20230183661A1, “BICOMPATIBLE PEPTIDEBIOCOMPATIBLE PEPTIDES FOR INHIBITION OF AGGREGATION OF B-AMYLOID PROTEIN” (Catholic University Industry Academic Cooperation Foundation, priority 2017, published 2023).
“Also recorded” adds a separate entry of the source.

What was measured:
[1] = test system: nerve cells (N2a); assay: Self-aggregate formation of peptide overexpressed in nerve cells (N2a), immunofluorescence; type: cell-based, mouse
Description: (§1) Twenty-four hours after the transfection, N2a cells were incubated in a 4% paraformaldehyde fixation solution for 15 minutes. The cells were washed with PBS three times, and incubated in a 50 mM NH4Cl/PBS quenching solution for 10 minutes.
(§2) Subsequently, the cells were washed with PBS three times, and incubated in a 0.1% Triton X-100/PBS solution for 5 minutes. The cells were then treated and incubated with 2% FBS/blocking buffer at room temperature for 1 hour. The cells were then treated and incubated with FLAG antibodies diluted 1/100 at room temperature for 2 hours, washed with PBS three times, and then treated and incubated with a goat anti-mouse Alexa Fluor®-red 594 dye.
(§3) The sample was washed with PBS three times, and mounted on a glass slide using a FluoroGuard Antifade reagent (Bio-Rad Laboratories, Inc.). A fluorescent image was obtained using a confocal laser scanning microscope (Zeiss LSM 510 Meta, Carl Zeiss AG), and processed using Adobe® Photoshop®, and a fluorescence signal intensity was measured using a ZEN 2009 Light Edition software program.
To identify whether a self-aggregate of the peptide (NABi) of the present invention was formed, the peptide of the present invention was overexpressed in nerve cells (N2a), and then measured by an immunofluorescence method.

[2] = test system: nerve cells (N2a); assay: Cytotoxicity by nuclear morphology through IFA; type: cell-based, mouse; settings: overexpressed in N2a, FIG. 5
Description: as §1, §2, §3
To confirm cytotoxicity of the peptide (NABi) of the present invention, the peptide of the present invention was overexpressed in nerve cells (N2a), and a nuclear morphology was observed through IFA. […]

[3] = test system: nerve cells (N2a); assay: Cytotoxicity through IB of neural cell death-associated proteins; type: cell-based, mouse; settings: peptide overexpressed in N2a, FIG. 6
Description: (§4) Cells were lysed in an RIPA buffer and incubated at 4° C. for 30 minutes. The RIPA buffer includes 2 μg/mL of a composition including 0.15 M NaCl, 0.5% (v/v) sodium-deoxycholate, 0.1% (v/v) SDS, 0.05 M Tris-HCl (pH 8.0), 1% (v/v) NP-40, aprotinin and leupeptin, 1 mM PMSF and a phosphatase inhibitor.
(§5) The phosphatase inhibitor included 1 mM Na3VO4 and 1 mM NaF. A protein concentration was measured by a Bradford assay (Bio-Rad Laboratories). The sample was separated in a 12% or 15% SDS-polyacrylamide gel.
(§6) The cells were lysed in a lysis buffer (Catalog No. 9803, Cell Signaling Technology), and the sample was separated in a 13% blue gel according to the manufacturer's protocol (MitoSciences Inc.).
(§7) Proteins were transferred to Protran® nitrocellulose membranes (Sigma-Aldrich Co. LLC), and then the membranes were incubated in a 5% non-fat dried milk/TBST solution at room temperature for 1 hour. […]
(§8) The membranes were incubated with a primary antibody at room temperature for 1 hour, and incubated again with a secondary antibody for 1 hour. The antigen-antibody complex was detected using an enhanced chemiluminescence kit (Santa Cruz Biotechnology, Inc.). […]
For the control, normal nerve cells (N2a) were treated with STS to induce apoptotic cell death (apoptosis positive control), and then the expression and activity of a neural cell death-associated protein were evaluated.

[4] = target: T1, Aβ protein aggregate (Homo sapiens, UniProt P05067); assay: Aβ aggregation inhibition in nerve cells through IFA; type: cell-based; settings: peptide and Aβ expressed, FIG. 7; Aβ-only control about 50% cells with aggregates
T1 construct: Aβ, and generally a peptide consisting of 36 to 43 amino acids; expressed in transfected cells; host or cells: N2a (murine neuroblastoma)
Description: as §1, §2, §3
To confirm the inhibition of Aβ aggregation by the peptide (NABi) of the present invention, the peptide of the present invention and Aβ were expressed in nerve cells, and then an Aβ protein aggregate was quantitatively analyzed through IFA. […]

[5] = target: T2, Aβ (Homo sapiens, UniProt P05067); assay: Aβ aggregate formation under aggregate formation conditions, measured through IB; type: biochemical; settings: FIG. 8
Description: 9. Formation of β-Amyloid Aggregate A monomer recombinant Aβ42 (Catalog No. 03-111, Invitrogen™ Co.) peptide was added to 1,1,1,3,3,3-hexafluoro-2-propanol (HFIP, Sigma-Aldrich Co. LLC) and stored in a −80° C. freezer, and the HFIP was evaporated and removed immediately before use. For the Aβ aggregate formation, 20 μM of Aβ peptides were dissolved in a 0.1 M HEPES/TBS buffer or 0.01 M HCl/TBS buffer and incubated at 37° C. for 14 days. The TBS buffer included 50 mM Tris-HCl and 150 mM NaCl.
To confirm the inhibition of Aβ aggregation by the peptide (NABi) of the present invention, the peptide (NABi) of the present invention and Aβ were cultured under i) a 0.1 M HEPES/TBS (pH 7.4) condition or ii) a 0.01 M HCl/TBS condition, and then the degree of Aβ aggregate formation was measured through IB.
Under an Aβ aggregate formation condition, for example, i) a 0.1 M HEPES/TBS (pH 7.4) condition or ii) a 0.01 M HCl/TBS condition, the control was subjected to IB in order to measure a degree of Aβ aggregate formation.

[6] = test system: nerve cells (H4 cells); assay: Neural cell death through PI staining; type: cell-based; settings: peptide and Aβ overexpressed in H4 cells, FIG. 10
From the text: Approximately 40 to 50% of the H4 cells were positive for a neuron marker (neuron-specific enolase; NSE). Since the H4 cells were sensitive to an Aβ aggregate, and neural cell death resulted from the Aβ aggregate, they were used in neural cell death analysis.
For the control, Aβ was overexpressed in nerve cells (H4 cells).

[7] = test system: nerve cells (H4 cells); assay: Neural cell death through nuclear morphology; type: cell-based; settings: peptide and Aβ overexpressed in H4 cells, versus Aβ-only control, FIG. 11
From the text: For the control, Aβ was overexpressed in the nerve cells (H4 cells).

[8] = test system: nerve cells (H4 cells); assay: Neural cell death through AnnexinV staining at different peptide expression levels; type: cell-based; settings: all expression levels of the peptide, H4 cells with Aβ, FIG. 12
From the text: An expression level of the peptide of the present invention was differentially adjusted.

[9] = test system: nerve cells (H4 cells); assay: Neural cell death-associated proteins through IB at different peptide expression levels; type: cell-based; settings: peptide and Aβ expressed in H4 cells, FIG. 13 lanes 6 to 8
Description: as §4, §5, §6, §7, §8
For the control, after Aβ was expressed in nerve cells (H4 cells), the expression and activity of a neural cell death-associated protein were measured through IB.

[10] = target: T2, Aβ; assay: Co-IP assay of SOD1 truncated peptides co-overexpressed with Aβ in nerve cells (N2a); type: binding; set-up: Aβ, and generally a peptide consisting of 36 to 43 amino acids; expressed in transfected cells; host or cells: N2a (murine neuroblastoma); settings: for Binding strength with β-amyloid / Acting with β-amyloid: Co-IP; for Binding strength with β-amyloid: relative score without scale; for Binding strength to Aβ: FIG. 3; for Binding to Aβ: FIG. 3, Co-IP; for Acting with β-amyloid: peptide and Aβ overexpressed in N2a
Description: The transfected HEK293T, H4 and N2a cells were lysed in a NETN buffer and incubated on ice for 1 hour. This solution includes 100 mM of NaCl, 1 mM of EDTA, 20 mM of Tris-HCl (pH 8.0), 0.5% (v/v) NP-40 and protease inhibitors. Among the protease inhibitors, aprotinin and leupeptin have a concentration of 2 μg/ml, and PMSF has a concentration of 0.1 mM.
1 mg of a protein extract and 1 μg of a primary antibody were mixed and cultured at 4° C. for 12 hours. The mixture was mixed with Protein G Sepharose 4 Fast Flow (GE Healthcare), and cultured at 4° C. for 1 hour, yielding a binding immune complex through centrifugation. A sample buffer was added to the precipitated Sepharose and boiled, and the buffer includes 44 mM Tris-HCl (pH 6.8), 2% SDS, 144 mM β-mercaptoethanol, 10% (v/v) glycerol, and 0.004% (v/v) bromophenol blue.
The immunoprecipitated sample was subjected to 12% SDS-polyacrylamide gel electrophoresis (SDS-PAGE) to transfer proteins to a membrane, and then immunoblotting with a FLAG antibody, a SOD1 antibody and a GFP antibody.
To identify a β-strand exposed at a protein surface and inhibiting Aβ protein aggregate formation through interactions with Aβ, all types of truncated fragments of SOD1 consisting of eight β-strands (β1 to β8) were systemically designed and constructed (FIG. 2). FIG. 2 schematically illustrates SOD1 and the β1-to-β8 structure of SOD1, and the sequences of Peptides 1 to 6.
To determine a determinant binding to Aβ, various peptides from which a specific β-strand was removed were constructed. Peptide 2 was prepared by removing a β-turn linked to the β2 strand in Peptide 1. Peptides 1 to 6 and Aβ were overexpressed in nerve cells (N2a), and then a Co-IP assay was performed.

[11] = target: T2, Aβ; assay: FRAP assay of Aβ mobility in nerve cells (N2a); type: cell-based; set-up: Aβ, and generally a peptide consisting of 36 to 43 amino acids; expressed in transfected cells; host or cells: N2a (murine neuroblastoma); settings: FIG. 9
Description: Fluorescence recovery after photobleaching (FRAP) is a technique for detecting the mobility of a fluorescence-tagged molecule in living cells. N2a cells were cultured in a 35 mm cell culture dish at a density of 5×10^4 cells/dish, and after 12 hours, a target plasmid was transfected into the cells.
Thirty six hours after the transfection, whether an aggregate was formed was analyzed by a laser confocal microscope. A specific area (white box part) was photobleached 15 times using 594 nm laser, and then fluorescence recovery in the photobleached part was measured at an interval of 3 seconds.
To confirm the inhibition of Aβ aggregation by the peptide (NABi) of the present invention, the peptide of the present invention and Aβ were overexpressed in nerve cells (N2a), a predetermined region was repeatedly exposed to a high intensity laser beam through a FRAP assay. Afterward, an Aβ protein was removed from the laser beam-exposed region, and then fluorescence recovery according to migration of peripheral Aβ proteins was measured in real time.
For the control, after Aβ was overexpressed in nerve cells (N2a), fluorescence recovery according to migration of peripheral Aβ proteins was measured in real time through a FRAP assay.

Peptide 5: Natural Amyloid β Binder and Amyloid β aggregation inhibitor; β1-to-β5 strand sequence of SOD1, 90 aa (SEQ ID NO: 3 or 4)
Self-aggregate formation [1]: did not form a self-aggregate
Nuclear morphology ([2]; compared with normal N2a control): normal nuclear morphology
Truncated forms of PARP1, Lamin A/C [3]: not detected either
Active caspase-3, active caspase-8, active caspase-9 and γ-H2AX ([3]; STS as apoptosis positive control): not detected
Nerve cells in which no Aβ protein aggregate was observed [4]: ≥ 80%
Reduction of Aβ aggregates compared to the control ([5]; i) 0.1 M HEPES/TBS (pH 7.4)): 1/10
Reduction of Aβ aggregates compared to the control ([5]; ii) 0.01 M HCl/TBS): ⅓
Reduction of the number of PI-stained apoptotic cells compared to the control [6]: approximately ⅓
Morphological changes in nuclei (chromosomal condensation and fragmentation) [7]: less morphological changes in nuclei
Neural cell death by AnnexinV staining [8]: neural cell death was inhibited
Detection of truncated caspase-3, truncated PARP and truncated Lamin A/C [9]: greatly reduced
Binding strength with β-amyloid [10]: 1
Binding strength to Aβ [10]: bound to Aβ at a similar strength; also recorded: strongly bound to Aβ
Binding to Aβ [10]: bound to Aβ
Recovery of fluorescence removed by photobleaching ([11]; within 20 seconds): 50%
Recovery of fluorescence removed by photobleaching ([11]; within 90 seconds): 75%

Peptide 3: truncated fragment of SOD1 consisting of β-strands β4 to β6, 75 aa
Acting with β-amyloid [10]: Not acting
Binding strength with β-amyloid [10]: 0
Binding to Aβ [10]: did not bind to Aβ

G93A: SOD1 mutant in which the 93th amino acid glycine was changed to alanine; aggregation and apoptosis comparator [Peptide G93A, reference compound]
Cells with condensed and fragmented nuclei [2]: approximately 50%

Peptide 6: truncated fragment of SOD1 consisting of β-strands β5 to β8, 74 aa
Acting with β-amyloid [10]: Not acting
Binding strength with β-amyloid [10]: 0
Binding to Aβ [10]: did not bind to Aβ

Peptide 4: truncated fragment of SOD1, β1-to-β3 sequence, 39 aa (SEQ ID NO: 2) (ATKAVCVLKGDGPVQGIINFEQKESNGPVKVWGSIKGLT; peptide 2)
Binding strength with β-amyloid [10]: 1
Binding strength to Aβ [10]: bound to Aβ at a similar strength
